Measurements: PMC5415106

Assays:
[1] = target: GST-Dpb11-wild-type (budding yeast) (UniProt P47027); test: pull-down; GST-Dpb11 pull-down of CDK-phosphorylated RPA with single-stranded DNA substituted for bubble-shaped DNA; data not shown
[2] = target: GST-Dpb11-m1,2,3,5,ΔC (budding yeast) (UniProt P47027); test: pull-down; 10 pmol GST-tagged Dpb11 with 32P-labelled protein, no DNA; GST-binding buffer (40 mM Tris-HCl pH 7.5, 100 mM NaCl, 0.1 mM EDTA, 10% glycerol, 0.1% Triton X-100, 1 mM DTT, 0.1 mg/ml BSA), 25°C 1 h; glutathione Sepharose, two washes; SDS-PAGE and phosphorimaging
Chain of GST-Dpb11-m1,2,3,5,ΔC (budding yeast) (P47027 1-615 K463E/K469E/R538E/K549E): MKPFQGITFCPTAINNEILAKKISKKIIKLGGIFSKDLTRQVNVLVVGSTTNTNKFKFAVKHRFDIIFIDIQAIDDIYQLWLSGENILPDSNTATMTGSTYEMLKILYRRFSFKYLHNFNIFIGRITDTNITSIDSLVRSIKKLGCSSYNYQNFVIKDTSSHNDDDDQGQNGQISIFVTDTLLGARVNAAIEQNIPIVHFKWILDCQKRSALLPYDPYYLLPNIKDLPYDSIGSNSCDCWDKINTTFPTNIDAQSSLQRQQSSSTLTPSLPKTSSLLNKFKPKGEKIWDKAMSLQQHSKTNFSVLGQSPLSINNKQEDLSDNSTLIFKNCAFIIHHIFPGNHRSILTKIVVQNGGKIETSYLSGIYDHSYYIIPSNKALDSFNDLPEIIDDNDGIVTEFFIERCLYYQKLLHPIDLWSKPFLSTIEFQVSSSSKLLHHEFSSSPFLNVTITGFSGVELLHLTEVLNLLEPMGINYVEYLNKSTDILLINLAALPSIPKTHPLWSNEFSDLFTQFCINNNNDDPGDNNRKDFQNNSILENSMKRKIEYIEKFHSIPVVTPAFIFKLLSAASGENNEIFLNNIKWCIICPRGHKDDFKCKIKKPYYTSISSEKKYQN

[3] = target: GST-Dpb11-wild-type (budding yeast) (UniProt P47027); test: as above
[4] = target: GST-Dpb11-m1,2,3,5,ΔC (budding yeast) (UniProt P47027); test: pull-down; as the GST pull-down without DNA, but in the presence of 10 pmol bubble-shaped DNA; 10 pmol GST-Dpb11, 32P-labelled RPA; 25°C 1 h, glutathione Sepharose
[5] = target: GST-Dpb11-wild-type (budding yeast) (UniProt P47027); test: as above
[6] = target: Mcm2-7 complex with a PKA tag at the N-terminus of Mcm2 [modified: 32P-phosphate on the PKA tag; 32P-phosphate on the PKA tag] [budding yeast]; test: GST pull-down, phosphorimaging; details: 10 pmoles GST-Dpb11, read off a plot

Chain of GST-Dpb11-wild-type (budding yeast) (P47027 whole entry): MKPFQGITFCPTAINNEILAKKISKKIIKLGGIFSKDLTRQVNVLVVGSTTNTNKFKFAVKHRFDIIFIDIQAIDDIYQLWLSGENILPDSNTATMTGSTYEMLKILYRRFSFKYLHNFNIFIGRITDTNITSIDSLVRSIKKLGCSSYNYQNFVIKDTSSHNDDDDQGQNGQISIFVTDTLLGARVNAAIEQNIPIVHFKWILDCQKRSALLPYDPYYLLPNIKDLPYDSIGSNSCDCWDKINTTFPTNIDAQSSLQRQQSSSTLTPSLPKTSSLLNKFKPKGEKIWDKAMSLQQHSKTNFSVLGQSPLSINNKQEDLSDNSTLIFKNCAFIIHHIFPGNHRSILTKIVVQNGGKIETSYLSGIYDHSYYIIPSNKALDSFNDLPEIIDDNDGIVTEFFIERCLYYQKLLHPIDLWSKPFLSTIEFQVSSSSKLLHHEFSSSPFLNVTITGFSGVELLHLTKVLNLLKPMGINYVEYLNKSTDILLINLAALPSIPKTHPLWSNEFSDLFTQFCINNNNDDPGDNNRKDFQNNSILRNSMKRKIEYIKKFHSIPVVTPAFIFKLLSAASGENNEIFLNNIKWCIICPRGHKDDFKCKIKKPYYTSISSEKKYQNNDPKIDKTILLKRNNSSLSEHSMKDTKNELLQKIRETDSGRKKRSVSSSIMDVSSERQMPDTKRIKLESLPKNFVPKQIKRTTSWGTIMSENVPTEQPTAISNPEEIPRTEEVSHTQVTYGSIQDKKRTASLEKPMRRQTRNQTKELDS

percent pulled down [1]	percent pulled down [2]	percent pulled down [3]	percent pulled down [4]	percent pulled down [5]	response ([6]; 1 pmole Mcm2-7 input, parent: 0.26)	response ([6]; 3 pmoles Mcm2-7 input, parent: 0.55)	response ([6]; 10 pmoles Mcm2-7 input, parent: 1.3)	Substance
50%	15%	15%	15%	50%				CDK-phosphorylated RPA (PKA-tagged on Rfa1) (from UniProt P22336 1-621) (complex)
		15%		15%				PKA-RPA (not phosphorylated by CDK) (from UniProt P22336 1-621) (complex)
					0.25 pmol	0.55 pmol	1.3 pmol	GST-Dpb11-wild-type mutant K463E; K469E; R538E; K549E [budding yeast] / Mcm2-7 complex with a PKA tag at the N-terminus of Mcm2 [modified: 32P-phosphate on the PKA tag; 32P-phosphate on the PKA tag] [budding yeast] chain 1 K463E, chain 1 K469E, chain 1 R538E, chain 1 K549E
